Patent US20260069689A1 (Regeneron, published 2026)

How the values were obtained:
[1] = biological target: human FcγR3a 176Val allotype receptor (human, UniProt P08637 17-254); test: cell-based or functional assay
SARS-COV-2 RBD-MMH [2] = biological target: SARS-COV-2 RBD-MMH (SARS-CoV-2); test: SPR 37C
SARS-COV-2 RBD-MMH [3] = biological target: SARS-COV-2 RBD-MMH (SARS-CoV-2); test: SPR 37C, run with dissociation at pH 7.4
SARS-COV-2 RBD-MMH [4] = biological target: SARS-COV-2 RBD-MMH (SARS-CoV-2); test: SPR 37C, run with dissociation at pH 5.0

Binder	EC50 (M), Jurkat/CD20/spike [1] [M]	Fold induction, Jurkat CD20 [1] [fold]	Fold induction, Jurkat/CD20/spike [1] [fold]	t½ Ratio of pH 7.4 to pH 5.0 (SARS-COV-2 RBD-MMH [2])	RBD.mmh Bound at pH 7.4 (RU) (SARS-COV-2 RBD-MMH [3])	koff (SARS-COV-2 RBD-MMH [3]) [s⁻¹]	RBD.mmh Bound at pH 7.4 (RU) (SARS-COV-2 RBD-MMH [4])	koff (SARS-COV-2 RBD-MMH [4]) [s⁻¹]	t½ (SARS-COV-2 RBD-MMH [4]) [min]
mAb13458 (antibody) heavy: not shown light: AIQMTQSPSSLSASVGDRVTITCRASQDIRNDLGWYQQKPGKAPKLLIYSASSLQTGVPSRFSGSGSGTDFTLTISSLHPEDFATYYCLQDYWYTWTFGQGTKVEIKRTVAAPSVFIFPPSDEQLKSGTASVVCLLNNFYPREAKVQWKVDNALQSGNSQESVTEQDSKDSTYSLSSTLTLSKADYEKHKVYACEVTHQGLSSPVTKSFNRGEC	1.43e-10	1.2	10.2	2.5	96.5	0.00161	90.9	0.00401	2.9
mAb14230 (antibody) heavy: not shown light: EIVLTQSPGTLSLSPGERATLSCRASQTVISTYLAWYQQKPGQSPRLLIYGASSRATGIPDRFSGSGSGTDFTLTISRLEPEDFAVYYCQQYGSSPQLTFGGGTKVEIKRTVAAPSVFIFPPSDEQLKSGTASVVCLLNNFYPREAKVQWKVDNALQSGNSQESVTEQDSKDSTYSLSSTLTLSKADYEKHKVYACEVTHQGLSSPVTKSFNRGEC	1.79e-10	1.1	9.8	1.2	67.6	0.00771	60.3	0.00924	1.3
mAb14234 (antibody) heavy: not shown light: QSVLTQPPSVSGAPGQRVTISCTGSSSNIGIGYDVHWYQQLPGTVPKLLIYGNTNRPSGVPDRFSGSKSGTSASLAITGLQAEDEADYYCQSYDSSLSSYVFGTGTKVTVLGQPKAAPSVTLFPPSSEELQANKATLVCLISDFYPGAVTVAWKADSSPVKAGVETTTPSKQSNNKYAASSYLSLTPEQWKSHRSYSCQVTHEGSTVEKTVAPTECS	2.69e-10	1.1	12.6	0.7	37.9	0.00221	40.4	0.00166	7
mAb14235 (antibody) heavy: not shown light: QSALTQPASVSGSPGQSITISCTATSSDVGTYNYVSWFQHHPGKAPKLMIYEVTNRPSGVSNRFSGSKSGNTASLTISGLQAEDEADYYCSSYTTTSIVFGGGTKLTVLGQPKAAPSVTLFPPSSEELQANKATLVCLISDFYPGAVTVAWKADSSPVKAGVETTTPSKQSNNKYAASSYLSLTPEQWKSHRSYSCQVTHEGSTVEKTVAPTECS	1.43e-10	1	10.8	0.8	71.2	0.00148	80.8	0.00119	9.7
mAb14247 (antibody) heavy: not shown light: QSALTQPASVSGSPGQSITISCTATSSDVGNYNYVSWYQQHPGKAPKLMIYEVSNRPSGVSNRFSGSKSGNTASLTISGLQAEDEADYYCSSYTSSSTPLVFGGGTKLTVLGQPKAAPSVTLFPPSSEELQANKATLVCLISDFYPGAVTVAWKADSSPVKAGVETTTPSKQSNNKYAASSYLSLTPEQWKSHRSYSCQVTHEGSTVEKTVAPTECS	1.79e-10	1	11.3	1.2	40.8	0.00158	51.9	0.00191	6.1
mAb14280 (antibody) heavy: not shown light: QSALTQPPSASGSPGQSVTISCTGTSSDVGGYNFVSWYQQHPGKAPKLMIYEVSKRPSGVPDRFSGSKSGNTASLTVSGLQAEDEADYYCSSYAGSNNFVFGTGTKVTVLGQPKAAPSVTLFPPSSEELQANKATLVCLISDFYPGAVTVAWKADSSPVKAGVETTTPSKQSNNKYAASSYLSLTPEQWKSHRSYSCQVTHEGSTVEKTVAPTECS	2.67e-10	1.1	13.5	0.5	72.4	0.024	61.7	0.0103	1.1
mAb14281 (antibody) heavy: not shown light: SSELTQDPAVSVALGQTVRITCQGDSLRSYYASWYQQKPGQAPVLVIYDKNNRPSGIPDRFSGSSSGNTASLTITGAQAEDEADYYCNSRDSSRNHLVVFGGGTKLTVLGQPKAAPSVTLFPPSSEELQANKATLVCLISDFYPGAVTVAWKADSSPVKAGVETTTPSKQSNNKYAASSYLSLTPEQWKSHRSYSCQVTHEGSTVEKTVAPTECS	1.65e-10	1.1	10.3	1.8	83.5	0.00659	51.7	0.0117	1
mAb14282 (antibody) heavy: not shown light: QSALTQPASVSGSPGQSITISCTGTSSDVGSYNLVSWYQQHPGKAPKLMIYELTKRPSGVSNRFSGSKSGNTASLTISGLQAEDEADYYCSSYRGSVTDVVFGGGTKLTVLGQPKAAPSVTLFPPSSEELQANKATLVCLISDFYPGAVTVAWKADSSPVKAGVETTTPSKQSNNKYAASSYLSLTPEQWKSHRSYSCQVTHEGSTVEKTVAPTECS	2.57e-10	1.1	10.7	0.5	73.5	0.0126	62.4	0.00671	1.7
mAb14283 (antibody) heavy: not shown light: QSALTQPASVSGSPGQSTTISCTGTSSDVGGYNYVSWYQQYPGKAPKLMIYDVTNRPSGVSHRFSGSKSGNTASLTISGLQAEDEADYYCSSYTSSSTVIFGGGTKLTVLGQPKAAPSVTLFPPSSEELQANKATLVCLISDFYPGAVTVAWKADSSPVKAGVETTTPSKQSNNKYAASSYLSLTPEQWKSHRSYSCQVTHEGSTVEKTVAPTECS	1.39e-10	1.1	9.1	3	87.7	0.00169	91.7	0.00512	2.3
mAb14284 (antibody, also called REGN14284) heavy: not shown light: QSALTQPASVSGSPGQSITISCTGTSSDLGVFNYVSWYQQHPGKAPKLMIYEVTNRPSGVSNRFSGSKSGNTASLTISGLQAEDEADYYCSSYTTSSTVFGGGTKLTVLGQPKAAPSVTLFPPSSEELQANKATLVCLISDFYPGAVTVAWKADSSPVKAGVETTTPSKQSNNKYAASSYLSLTPEQWKSHRSYSCQVTHEGSTVEKTVAPTECS	1.56e-10	1.1	9	1.2	147	0.000624	159	0.000736	15.7
mAb14286 (antibody) heavy: not shown light: QSALTQPASVSGYPGQSITISCTGTSSDVGGYNYVSWYQQHPGKAPKLMIFDVSNRPSGVSNRFSGSKSGNTASLTFSGLQAEDEADYYCSSYTSSSTLVFGGGTKLTVLGQPKAAPSVTLFPPSSEELQANKATLVCLISDFYPGAVTVAWKADSSPVKAGVETTTPSKQSNNKYAASSYLSLTPEQWKSHRSYSCQVTHEGSTVEKTVAPTECS	2.04e-10	1	11	0.7	84.3	0.00968	82.4	0.00664	1.7
mAb14289 (antibody) heavy: not shown light: EIVLTQSPGTLSLSPGERATLSCRASQSVSSYLAWYQQKPGQAPRLLIHGASSRATGIPDRFSGSGSGTDFTLTISRLEPEDFAVYYCQQYGSSFLTFGGGTKVEIKRTVAAPSVFIFPPSDEQLKSGTASVVCLLNNFYPREAKVQWKVDNALQSGNSQESVTEQDSKDSTYSLSSTLTLSKADYEKHKVYACEVTHQGLSSPVTKSFNRGEC	1.3e-10	1	6.3	2.5	86.1	0.00185	89.3	0.0046	2.5
mAb15150 (antibody, V domains shown) VH: EVQLVETGGGLIQPGGSLRLSCAAPGFIVSSNYMSWVRQAPGKGLEWVSLLYPGGSTYYADSVKGRFTISRDNSKNTLYLQMNSLRADDTAVYYCARVLPIVEDHFDYWGQGTLVTVSS VL: DIQLTQSPSFLSASVGDRVTITCRASQGMSSYLAWYQKKPGKAPKLLIYGATILQSGVPSRFSGSGSGTEFTLTISSLQPEDFATYYCQQLNSDPLYMYTFGQGTKLEIKR	–	–	–	0.1	87.8	0.000112	92.6	1e-05	1160
mAb15151 (antibody, V domains shown) VH: QVQLVESGGGVVQPGRSLRLSCAASGFVFNSYGMHWVRQAPGKGLEWVAVLWYEGSKNYYADSVKGRFTISRDNSKNTLYLQMNSLRAEDTAVYYCARHGSGSFFGYYLDYWGQGTLVTVSS VL: DIQMTQSPSSLSASVGDRVTITCRASHNINDFLNWYQQKPGKAPRLLIYAASSLQSGVPSRFSGSGSGTDFTLTISSLQPEDFATYYCQESYTTPPTFGQGTKLEIKR	–	–	–	0.6	219	0.0068	231	0.00439	2.6
